Tests used:
Test in all cases: DELFIA, IgG titrated on captured biotin-peptide
Design in all cases: unit not given beside the values
[1] = molecular target: SARS-CoV-2 spike S2 peptide 1133-1147, biotinylated (SARS-CoV-2)
[2] = molecular target: SARS-CoV-2 spike S2 peptide 1137-1151, biotinylated (SARS-CoV-2)
[3] = molecular target: SARS-CoV-2 spike S2 peptide 1141-1155, biotinylated (SARS-CoV-2)
[4] = molecular target: SARS-CoV-2 spike S2 peptide 1143-1162 (stem helix region), biotinylated (SARS-CoV-2)
[5] = molecular target: SARS-CoV-2 spike S2 peptide 1145-1159, biotinylated (SARS-CoV-2)
[6] = molecular target: SARS-CoV-2 spike S2 peptide 1149-1163, biotinylated (SARS-CoV-2)
[7] = molecular target: SARS-CoV-2 spike S2 peptide 1149-1167 (C-terminal end of the stem helix), biotinylated (SARS-CoV-2)
[8] = molecular target: SARS-CoV-2 spike S2 peptide 1153-1167, biotinylated (SARS-CoV-2)
[9] = molecular target: SARS-CoV-2 spike S2 peptide 1157-1171, biotinylated (SARS-CoV-2)

B1: AB-1 (antibody, V domains shown)
VH: EVQLVESGAEVKKPGESLKISCKGSGYTFTRYWIGWVRQMPGKGLEWMGIIYPGDSDVRYSPSFQGHVTISADKSISTAYLQWNSLKASDTAMYYCARLPQYCSKGVCYRWFDPWGQGTLVTVSS
VL: EIVLTQSPSSVSASVGDRVTITCRASQGISSWLAWYQQKPGKAPKLLIYAASSLQSGVPSRFSGSGSGTDFTLTISSLQPEDFATYYCQQGHSFPYTFGQGTNLEIK
Q: Which AUC [1] does the source give for B1 here?
A: 27100

Q: What about the AUC [2] of the same binder?
A: 21500

Q: And the AUC [3]?
A: 18000

Q: And the AUC [4]?
A: 3.52e+06

Q: What about the AUC [5] of the same binder?
A: 1.7e+06

Q: What about the AUC [6] of the same binder?
A: 3.52e+06

Q: What about the AUC [7] of the same binder?
A: 3.27e+06

Q: What about the AUC [8] of the same binder?
A: 3.32e+06

Q: What about the AUC [9] of the same binder?
A: 30000

From patent publication US20230357367A1
